Test results reported in patent US20110124576A1 (NOVOZYMES A S, published 2011).

Columns and labels:
[1] = target: T1, transferrin receptor on human erythroleukemic K562 cells (human, UniProt P02786 1-760); assay: cell-based or functional assay
[2] = target: T1, transferrin receptor on human …; assay: specific 55Fe uptake from labelled diferric transferrin into K562 cells, 25 min at 37 C, 12.5-2000 nM; unspecific uptake (hundredfold unlabelled transferrin) subtracted; mean ± S.E.M. of three experiments
Method: Iron uptake from labelled diferric transferrins was performed as follows. K562 erythroleukemic cells, cultured in RPMI cell culture medium under standard conditions (bicarbonate-buffered, 5% CO₂, antibiotics, 10% foetal calf serum) were washed with serum-free medium containing HEPES-buffer and 1 mg/ml of bovine serum albumin and used at a concentration of 10 million cells/ml in this medium.
The reaction was started by the addition of 50 μl of cell suspension.
After 25 min at 37° C. the reaction was stopped by immersion into an ice-bath, three aliquots of 30 μL of cell suspension were transferred to new tubes and the cells were centrifuged in the cold and again after addition of an oil layer of diethylphtalate/dibutylphthalate. The supernatant was removed, the cell pellet transferred into a counter vial and lysed with 0.5 M KOH+1% Triton X-100. The lysates were neutralized with 1M HCl after overnight lysis, mixed with Readysolv scintillation cocktail and counted in the Packard Liquid Scintillation Counter.

[3] = target: T1, transferrin receptor on human …; assay: cell-based or functional assay; remark: listed apart in the source

T1 sequence (P02786 whole entry): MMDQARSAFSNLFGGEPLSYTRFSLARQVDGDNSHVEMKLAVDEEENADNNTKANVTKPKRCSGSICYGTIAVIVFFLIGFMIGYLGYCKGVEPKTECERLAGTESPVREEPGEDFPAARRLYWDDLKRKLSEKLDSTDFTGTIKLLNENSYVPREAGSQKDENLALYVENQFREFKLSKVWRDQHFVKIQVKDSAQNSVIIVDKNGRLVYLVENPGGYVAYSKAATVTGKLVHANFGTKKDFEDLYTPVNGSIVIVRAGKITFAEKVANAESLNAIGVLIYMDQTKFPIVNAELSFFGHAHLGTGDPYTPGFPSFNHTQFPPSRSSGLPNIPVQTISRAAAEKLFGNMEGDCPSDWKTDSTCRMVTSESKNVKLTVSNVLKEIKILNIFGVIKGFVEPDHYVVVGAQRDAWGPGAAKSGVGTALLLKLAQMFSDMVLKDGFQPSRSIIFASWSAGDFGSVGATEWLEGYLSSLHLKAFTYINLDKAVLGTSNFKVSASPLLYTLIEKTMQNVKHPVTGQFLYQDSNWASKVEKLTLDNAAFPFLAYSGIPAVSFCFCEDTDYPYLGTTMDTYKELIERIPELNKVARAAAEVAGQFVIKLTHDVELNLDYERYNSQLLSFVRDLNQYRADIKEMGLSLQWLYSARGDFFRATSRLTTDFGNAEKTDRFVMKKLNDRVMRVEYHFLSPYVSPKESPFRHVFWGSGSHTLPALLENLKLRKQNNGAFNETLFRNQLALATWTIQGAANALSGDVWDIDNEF

Row | Binder | Specific iron uptake Bmax [1] | Kd [2] [nM] | specific iron uptake into K562 cells [3]
1 | recombinant human transferrin (S415A, T613A) (ligand, Secreted from S. cerevisiae; 55Fe-loaded (diferric) in the K562 assay; also called Deltaferrin; rTf) VPDKTVRWCAVSEHEATKCQSFRDHMKSVIPSDGPSVACVKKASYLDCIRAIAANEADAVTLDAGLVYDAYLAPNNLKPVVAEFYGSKEDPQTFYYAVAVVKKDSGFQMNQLRGKKSCHTGLGRSAGWNIPIGLLYCDLPEPRKPLEKAVANFFSGSCAPCADGTDFPQLCQLCPGCGCSTLNQYFGYSGAFKCLKDGAGDVAFVKHSTIFENLANKADRDQYELLCLDNTRKPVDEYKDCHLAQVPSHTVVARSMGGKEDLIWELLNQAQEHFGKDKSKEFQLFSSPHGKDLLFKDSAHGFLKVPPRMDAKMYLGYEYVTAIRNLREGTCPEAPTDECKPVKWCALSHHERLKCDEWSVNSVGKIECVSAETTEDCIAKIMNGEADAMSLDGGFVYIAGKCGLVPVLAENYNKADNCEDTPEAGYFAVAVVKKSASDLTWDNLKGKKSCHTAVGRTAGWNIPMGLLYNKINHCRFDEFFSEGCAPGSKKDSSLCKLCMGSGLNLCEPNNKEGYYGYTGAFRCLVEKGDVAFVKHQTVPQNTGGKNPDPWAKNLNEKDYELLCLDGTRKPVEEYANCHLARAPNHAVVTRKDKEACVHKILRQQQHLFGSNVADCSGNFCLFRSETKDLLFRDDTVCLAKLHDRNTYEKYLGEEYVKAVGNLRKCSTSSLLEACTFRRP | 2830 fmol 55Fe/10^6 cells x 25 min | 130 | –
2 | recombinant thiotransferrin (S28C, S415A, T613A) (ligand, free thiol at Cys 28, Iron-loaded in SPR, 55Fe-loaded in the K562 assay; also called from Strain 1 [pDB3767]) VPDKTVRWCAVSEHEATKCQSFRDHMKCVIPSDGPSVACVKKASYLDCIRAIAANEADAVTLDAGLVYDAYLAPNNLKPVVAEFYGSKEDPQTFYYAVAVVKKDSGFQMNQLRGKKSCHTGLGRSAGWNIPIGLLYCDLPEPRKPLEKAVANFFSGSCAPCADGTDFPQLCQLCPGCGCSTLNQYFGYSGAFKCLKDGAGDVAFVKHSTIFENLANKADRDQYELLCLDNTRKPVDEYKDCHLAQVPSHTVVARSMGGKEDLIWELLNQAQEHFGKDKSKEFQLFSSPHGKDLLFKDSAHGFLKVPPRMDAKMYLGYEYVTAIRNLREGTCPEAPTDECKPVKWCALSHHERLKCDEWSVNSVGKIECVSAETTEDCIAKIMNGEADAMSLDGGFVYIAGKCGLVPVLAENYNKADNCEDTPEAGYFAVAVVKKSASDLTWDNLKGKKSCHTAVGRTAGWNIPMGLLYNKINHCRFDEFFSEGCAPGSKKDSSLCKLCMGSGLNLCEPNNKEGYYGYTGAFRCLVEKGDVAFVKHQTVPQNTGGKNPDPWAKNLNEKDYELLCLDGTRKPVEEYANCHLARAPNHAVVTRKDKEACVHKILRQQQHLFGSNVADCSGNFCLFRSETKDLLFRDDTVCLAKLHDRNTYEKYLGEEYVKAVGNLRKCSTSSLLEACTFRRP | 3020 fmol 55Fe/10^6 cells x 25 min | 209 | > 5 % of the level for the transferrin (S415A, T613A) control
3 | fluorescein conjugated thiotransferrin (S415C, T613A) (ligand, fluorescein-5-maleimide conjugated to the free thiol of Cys 415, Iron-loaded in SPR, 55Fe-loaded in the K562 assay; also called Fluorescein conjugated recombinant thiotransferrin (S415C, T613A)) VPDKTVRWCAVSEHEATKCQSFRDHMKSVIPSDGPSVACVKKASYLDCIRAIAANEADAVTLDAGLVYDAYLAPNNLKPVVAEFYGSKEDPQTFYYAVAVVKKDSGFQMNQLRGKKSCHTGLGRSAGWNIPIGLLYCDLPEPRKPLEKAVANFFSGSCAPCADGTDFPQLCQLCPGCGCSTLNQYFGYSGAFKCLKDGAGDVAFVKHSTIFENLANKADRDQYELLCLDNTRKPVDEYKDCHLAQVPSHTVVARSMGGKEDLIWELLNQAQEHFGKDKSKEFQLFSSPHGKDLLFKDSAHGFLKVPPRMDAKMYLGYEYVTAIRNLREGTCPEAPTDECKPVKWCALSHHERLKCDEWSVNSVGKIECVSAETTEDCIAKIMNGEADAMSLDGGFVYIAGKCGLVPVLAENYNKCDNCEDTPEAGYFAVAVVKKSASDLTWDNLKGKKSCHTAVGRTAGWNIPMGLLYNKINHCRFDEFFSEGCAPGSKKDSSLCKLCMGSGLNLCEPNNKEGYYGYTGAFRCLVEKGDVAFVKHQTVPQNTGGKNPDPWAKNLNEKDYELLCLDGTRKPVEEYANCHLARAPNHAVVTRKDKEACVHKILRQQQHLFGSNVADCSGNFCLFRSETKDLLFRDDTVCLAKLHDRNTYEKYLGEEYVKAVGNLRKCSTSSLLEACTFRRP | 3250 fmol 55Fe/10^6 cells x 25 min | 189 | > 5 % of the level for the transferrin (S415A, T613A) control
4 | recombinant thiotransferrin (S415C, T613A) (ligand, free thiol at Cys 415, Iron-loaded in SPR, 55Fe-loaded in the K562 assay; also called from Strain 1 [pDB3773]) VPDKTVRWCAVSEHEATKCQSFRDHMKSVIPSDGPSVACVKKASYLDCIRAIAANEADAVTLDAGLVYDAYLAPNNLKPVVAEFYGSKEDPQTFYYAVAVVKKDSGFQMNQLRGKKSCHTGLGRSAGWNIPIGLLYCDLPEPRKPLEKAVANFFSGSCAPCADGTDFPQLCQLCPGCGCSTLNQYFGYSGAFKCLKDGAGDVAFVKHSTIFENLANKADRDQYELLCLDNTRKPVDEYKDCHLAQVPSHTVVARSMGGKEDLIWELLNQAQEHFGKDKSKEFQLFSSPHGKDLLFKDSAHGFLKVPPRMDAKMYLGYEYVTAIRNLREGTCPEAPTDECKPVKWCALSHHERLKCDEWSVNSVGKIECVSAETTEDCIAKIMNGEADAMSLDGGFVYIAGKCGLVPVLAENYNKCDNCEDTPEAGYFAVAVVKKSASDLTWDNLKGKKSCHTAVGRTAGWNIPMGLLYNKINHCRFDEFFSEGCAPGSKKDSSLCKLCMGSGLNLCEPNNKEGYYGYTGAFRCLVEKGDVAFVKHQTVPQNTGGKNPDPWAKNLNEKDYELLCLDGTRKPVEEYANCHLARAPNHAVVTRKDKEACVHKILRQQQHLFGSNVADCSGNFCLFRSETKDLLFRDDTVCLAKLHDRNTYEKYLGEEYVKAVGNLRKCSTSSLLEACTFRRP | 2360 fmol 55Fe/10^6 cells x 25 min | 203 | > 5 % of the level for the transferrin (S415A, T613A) control
5 | fluorescein conjugated thiotransferrin (S28C, S415A, T613A) (ligand, fluorescein-5-maleimide conjugated to the free thiol of Cys 28, Iron-loaded in SPR, 55Fe-loaded in the K562 assay; also called Fluorescein conjugated recombinant thiotransferrin (S28C, S415A, T613A)) VPDKTVRWCAVSEHEATKCQSFRDHMKCVIPSDGPSVACVKKASYLDCIRAIAANEADAVTLDAGLVYDAYLAPNNLKPVVAEFYGSKEDPQTFYYAVAVVKKDSGFQMNQLRGKKSCHTGLGRSAGWNIPIGLLYCDLPEPRKPLEKAVANFFSGSCAPCADGTDFPQLCQLCPGCGCSTLNQYFGYSGAFKCLKDGAGDVAFVKHSTIFENLANKADRDQYELLCLDNTRKPVDEYKDCHLAQVPSHTVVARSMGGKEDLIWELLNQAQEHFGKDKSKEFQLFSSPHGKDLLFKDSAHGFLKVPPRMDAKMYLGYEYVTAIRNLREGTCPEAPTDECKPVKWCALSHHERLKCDEWSVNSVGKIECVSAETTEDCIAKIMNGEADAMSLDGGFVYIAGKCGLVPVLAENYNKADNCEDTPEAGYFAVAVVKKSASDLTWDNLKGKKSCHTAVGRTAGWNIPMGLLYNKINHCRFDEFFSEGCAPGSKKDSSLCKLCMGSGLNLCEPNNKEGYYGYTGAFRCLVEKGDVAFVKHQTVPQNTGGKNPDPWAKNLNEKDYELLCLDGTRKPVEEYANCHLARAPNHAVVTRKDKEACVHKILRQQQHLFGSNVADCSGNFCLFRSETKDLLFRDDTVCLAKLHDRNTYEKYLGEEYVKAVGNLRKCSTSSLLEACTFRRP | 2430 fmol 55Fe/10^6 cells x 25 min | 154 | > 5 % of the level for the transferrin (S415A, T613A) control
